In patent US6602660:

Legend:
[1] = biological target: MUC-1 mucin expressed on the surface of PHA activated human T-cells (human) (UniProt P15941); assay: cell-based or functional assay
[2] = biological target: Anti-human-MUC-1 mAb B27.29; assay: flow cytometry; soluble MUC-1 mucin (50 µg) inhibits B27.29 staining of 3 day PHA activated T-cells
[3] = biological target: Anti-human-MUC-1 mAb B27.29; assay: flow cytometry; soluble MUC-1 mucin (1 µg) inhibits B27.29 staining of 3 day PHA activated T-cells
[4] = biological target: Anti-human-MUC-1 mAb B27.29; assay: flow cytometry; soluble MUC-1 mucin (10 µg) inhibits B27.29 staining of 3 day PHA activated T-cells

Effect on T-cell proliferation (% Inhibition) at 5 µg/ml [1] [%] | Effect on T-cell proliferation (% Inhibition) at 25 µg/ml [1] [%] | % inhibition of binding [2] [%] | % inhibition of binding [3] [%] | % inhibition of binding [4] [%] | Substance
58 | 82 | – | – | – | Anti-human-MUC-1 mAb B27.29 (antibody)
– | – | 65 | 25 | 45 | soluble MUC-1 mucin (from UniProt P15941 24-1097)
